Patent US9433687B2, “Anti-Notch3 antibodies and antibody-drug conjugates” (Pfizer Inc., priority 2012, dated 2016)

Target: T1, mouse Notch3 expressed on the cell surface of U2OS/mNotch3 cells (Mus musculus, UniProt Q61982)
T1 construct: U-2 OS cells stably over-expressing human or mouse full length Notch3 protein on cell surface; expressed in transfected cells; host or cells: U-2 OS (human osteosarcoma)
Test: Cell-based ELISA, U2OS/mNotch3 cells
Conditions: Table 3; N/B = non-binding
Method: Humanized hu28 and hu75, and rat-human chimeric, ch28 and ch75, anti-Notch3 antibodies were screened for cell surface Notch3 binding in a cell-based ELISA. U-2 OS cells stably over-expressing human or mouse full length Notch3 protein on cell surface (hereinafter U2OS/hNotch3 and U2OS/mNotch3, respectively) were plated at 50,000 cells/well in 96 well plates (white opaque, BD/VWR) the day before ELISA assay. On the day of the ELISA, culture media was removed from wells and serially diluted (1:3 in blocking buffer) antibody solutions were applied to the plate. Plates were incubated at room temperature for 2 hours before being washed with PBS-Mg/Ca. HRP-conjugated secondary antibody was then applied and incubated with cells for 1 hour as described above for recombinant protein ELISA. […] Data plotting and analyses were performed with Microsoft Excel and Graphpad-Prism software.

T1 sequence (Q61982 40-2318): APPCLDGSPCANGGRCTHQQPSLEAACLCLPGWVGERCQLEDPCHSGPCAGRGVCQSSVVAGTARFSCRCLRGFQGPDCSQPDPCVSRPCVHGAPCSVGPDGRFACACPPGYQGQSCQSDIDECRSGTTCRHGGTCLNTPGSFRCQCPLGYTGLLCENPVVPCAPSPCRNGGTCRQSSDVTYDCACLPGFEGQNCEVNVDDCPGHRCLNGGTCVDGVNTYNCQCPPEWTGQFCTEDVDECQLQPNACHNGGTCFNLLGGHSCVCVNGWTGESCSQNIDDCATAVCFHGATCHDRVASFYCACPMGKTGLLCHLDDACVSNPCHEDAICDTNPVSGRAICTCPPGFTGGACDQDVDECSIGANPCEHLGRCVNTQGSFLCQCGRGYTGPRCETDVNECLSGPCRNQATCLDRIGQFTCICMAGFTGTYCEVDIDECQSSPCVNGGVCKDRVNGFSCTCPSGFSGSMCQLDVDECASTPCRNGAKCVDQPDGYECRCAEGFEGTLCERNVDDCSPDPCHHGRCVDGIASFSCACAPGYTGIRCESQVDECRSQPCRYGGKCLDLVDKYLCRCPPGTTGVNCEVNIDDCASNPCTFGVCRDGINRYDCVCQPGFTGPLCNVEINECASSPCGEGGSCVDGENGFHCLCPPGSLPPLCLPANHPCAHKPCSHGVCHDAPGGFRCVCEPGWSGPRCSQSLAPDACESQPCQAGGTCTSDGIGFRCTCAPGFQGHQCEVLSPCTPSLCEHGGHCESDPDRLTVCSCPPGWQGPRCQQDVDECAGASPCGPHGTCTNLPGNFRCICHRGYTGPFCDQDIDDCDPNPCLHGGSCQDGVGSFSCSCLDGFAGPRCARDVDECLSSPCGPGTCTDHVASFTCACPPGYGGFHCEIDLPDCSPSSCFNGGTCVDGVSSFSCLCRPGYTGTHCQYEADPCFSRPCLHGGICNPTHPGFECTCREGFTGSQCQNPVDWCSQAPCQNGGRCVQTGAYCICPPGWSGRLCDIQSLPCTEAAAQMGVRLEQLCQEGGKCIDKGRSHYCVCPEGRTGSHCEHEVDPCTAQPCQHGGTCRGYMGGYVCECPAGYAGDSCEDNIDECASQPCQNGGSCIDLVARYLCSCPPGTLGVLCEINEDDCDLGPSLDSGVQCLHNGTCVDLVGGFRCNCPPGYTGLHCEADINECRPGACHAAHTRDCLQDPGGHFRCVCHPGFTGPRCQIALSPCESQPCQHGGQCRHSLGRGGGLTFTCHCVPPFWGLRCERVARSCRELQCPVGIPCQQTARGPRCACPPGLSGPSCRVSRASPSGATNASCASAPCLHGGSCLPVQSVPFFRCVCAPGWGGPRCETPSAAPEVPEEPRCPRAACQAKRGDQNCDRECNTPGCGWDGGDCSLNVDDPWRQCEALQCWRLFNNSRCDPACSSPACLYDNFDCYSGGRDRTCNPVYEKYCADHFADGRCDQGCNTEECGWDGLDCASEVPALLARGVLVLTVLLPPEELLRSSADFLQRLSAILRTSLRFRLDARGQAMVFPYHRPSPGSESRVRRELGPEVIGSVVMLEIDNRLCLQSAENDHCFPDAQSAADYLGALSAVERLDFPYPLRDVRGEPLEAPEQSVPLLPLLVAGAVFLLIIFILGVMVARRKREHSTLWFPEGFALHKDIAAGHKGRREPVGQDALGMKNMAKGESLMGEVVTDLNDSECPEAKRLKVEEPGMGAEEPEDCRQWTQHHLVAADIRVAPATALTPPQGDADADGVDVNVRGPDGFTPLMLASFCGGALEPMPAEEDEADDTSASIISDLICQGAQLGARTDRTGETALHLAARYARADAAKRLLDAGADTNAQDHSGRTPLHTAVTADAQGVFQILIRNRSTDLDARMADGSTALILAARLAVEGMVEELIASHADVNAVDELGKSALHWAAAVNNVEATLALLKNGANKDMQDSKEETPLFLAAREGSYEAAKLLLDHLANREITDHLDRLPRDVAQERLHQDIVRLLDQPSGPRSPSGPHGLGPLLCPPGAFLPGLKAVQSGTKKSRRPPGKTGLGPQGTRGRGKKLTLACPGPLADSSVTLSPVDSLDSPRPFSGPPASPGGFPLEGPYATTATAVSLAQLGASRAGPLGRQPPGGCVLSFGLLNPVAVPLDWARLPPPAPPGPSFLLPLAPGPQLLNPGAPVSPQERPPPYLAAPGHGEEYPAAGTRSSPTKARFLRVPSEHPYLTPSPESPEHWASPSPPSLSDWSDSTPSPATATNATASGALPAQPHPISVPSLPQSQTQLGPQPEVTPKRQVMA

EC50 (nM) cell surface Notch3 binding ELISA, Full-length Mouse Notch3: N/B
B1: ch75: rat-human chimeric anti-Notch3 antibody 75, rat variable regions fused with human IgG1 and human kappa (antibody, V domains shown)
VH: QVKLLQSGAALVKPGASVKMSCKASGYAFTDYWVTWVKQSHGKSLEWIGEISPNSGGTNFNEKFKGKATLTVDKSTSTAYMELSRLTSEDSAIYYCTRGEIRYNWFAYWGQGTLVTVSS
VL: NIVMTQSPKSMSISVGDRVTMNCKASQNVGNNIAWYQQKPGQSPKLLIYYASNRYTGVPDRFTGGGYGTDFTLTINSMQAEDAAFYYCQRLYNSPFTFGSGTKLEIK
